In the supplement of paper PMC7125110:
± gives the standard error. Fewer inactive variants are shown than the library holds.

B1: glmS ribozyme (parent)
chain: AUAAAAGCGCCAGAACUACAGAAAUGUAGUUGACGAGGAGGAGGUUUAUCGAAUUUUCGGCGGAUGCCUCCAAA

Experiments:
Conditions in all cases: with glucosamine-6-phosphate
glucosamine-6-phosphate [1] = variants of: B1; assay: self-cleavage kobs at 640 uM GlcN6P; higher = faster cleavage; RNA array
Outline: (§1)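 Sequenced MiSeq chips were the platform: E. coli RNA polymerase transcribed barcoded ribozyme variants on them in situ, and a hybridised Cy3 probe tracked these at 37 °C. After glucosamine-6-phosphate (40 μM to 10 mM) in HEPES/KCl/Mg(OAc)2 buffer was flowed in, tiles were imaged over ~14 h. Signals normalised to baseline and to non-cleaving reference variants were reduced to per-tile medians and fit to one- or two-exponential decays to obtain kobs. kcat and KM were derived through weighted Michaelis–Menten fits across concentrations.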

glucosamine-6-phosphate [2] = variants of: B1; assay: self-cleavage kobs at 2500 uM GlcN6P; higher = faster cleavage; RNA array
Outline: as §1

glucosamine-6-phosphate [3] = variants of: B1; assay: self-cleavage kobs at 10000 uM GlcN6P; higher = faster cleavage; RNA array
Outline: as §1

Row | Variant | self-cleavage kobs at 640 uM GlcN6P (glucosamine-6-phosphate [1]) | self-cleavage kobs at 2500 uM GlcN6P (glucosamine-6-phosphate [2]) | self-cleavage kobs at 10000 uM GlcN6P (glucosamine-6-phosphate [3])
1 | G29A U56A A64G | 0.000408 ± 0.00012 s⁻¹ | 0.00201 ± 0.00043 s⁻¹ | 0.00195 ± 0.00041 s⁻¹
2 | A15U U45A A53C | 0.000941 ± 0.00022 s⁻¹ |  | 
3 | C16A C34G C68G | 0.000145 ± 4.7e-05 s⁻¹ | 0.000193 ± 6.5e-05 s⁻¹ | 4.24e-05 ± 2e-05 s⁻¹
4 | C16U U30A G44C G63C | < 1e-05 s⁻¹ |  | < 1e-05 s⁻¹
5 | C16A G66U C68G | 6.61e-05 ± 2.5e-05 s⁻¹ | 6.82e-05 ± 2.8e-05 s⁻¹ | 
6 | C16A G66U C68A | 0.0001 ± 3.2e-05 s⁻¹ |  | 
7 | G29U U69A C71G | 8.16e-05 ± 3.4e-05 s⁻¹ |  | 
8 | G32U A64C C71A | < 1e-05 s⁻¹ | < 1e-05 s⁻¹ | 
9 | G29A G37A | 0.000124 ± 3.6e-05 s⁻¹ | 0.000156 ± 5.7e-05 s⁻¹ | 
10 | G29C A42G G43U G51C G62C | < 1e-05 s⁻¹ |  | 
11 | A33C C34A U57G | < 1e-05 s⁻¹ |  | 
12 | U31G G51U | < 1e-05 s⁻¹ |  | 
13 | G29U A33U G44A | < 1e-05 s⁻¹ | < 1e-05 s⁻¹ | 
14 | U31C G37A G44U A48U C50A U65G | < 1e-05 s⁻¹ |  | 
15 | A33C G43U G63U | < 1e-05 s⁻¹ | < 1e-05 s⁻¹ | < 1e-05 s⁻¹
16 | G29C U56A C67G | 4.47e-05 ± 2.1e-05 s⁻¹ | 7.09e-05 ± 2e-05 s⁻¹ | 
17 | C16A G62U C71G | < 1e-05 s⁻¹ | < 1e-05 s⁻¹ | 
18 | A15G G44C G59U | < 1e-05 s⁻¹ | < 1e-05 s⁻¹ | 
19 | U31C G35C C50U | < 1e-05 s⁻¹ | < 1e-05 s⁻¹ | 
20 | U30A G37C A53U | < 1e-05 s⁻¹ |  | < 1e-05 s⁻¹
21 | C34A C67A | < 1e-05 s⁻¹ |  | < 1e-05 s⁻¹

Row | Variant | self-cleavage kobs at 640 uM GlcN6P (glucosamine-6-phosphate [1]) | self-cleavage kobs at 2500 uM GlcN6P (glucosamine-6-phosphate [2]) | self-cleavage kobs at 10000 uM GlcN6P (glucosamine-6-phosphate [3])
22 | C16U G37A U54C | 0.000373 ± 8.1e-05 s⁻¹ | 0.000599 ± 0.00013 s⁻¹ | 0.00176 ± 0.00031 s⁻¹
23 | G29A A36C | < 1e-05 s⁻¹ | < 1e-05 s⁻¹ | < 1e-05 s⁻¹
24 | A15U G66C C68A | 8.24e-05 ± 3.9e-05 s⁻¹ | 6.09e-05 ± 2.8e-05 s⁻¹ | 
25 | A15G G43U A48U C50U | < 1e-05 s⁻¹ |  | 
26 | G32A G44U C67G | 0.000431 ± 0.0001 s⁻¹ | 0.00127 ± 0.00059 s⁻¹ | 
27 | U31C A52C C71A | < 1e-05 s⁻¹ |  | 
28 | A15G A39C A53U | 0.000793 ± 0.00012 s⁻¹ | 0.00236 ± 0.00069 s⁻¹ | 
29 | A33U G60A A64G | < 1e-05 s⁻¹ | < 1e-05 s⁻¹ | 
30 | A15G G37U C58A C70A | 6.04e-05 ± 1.8e-05 s⁻¹ |  | 
31 | A33G A36G G38A | < 1e-05 s⁻¹ |  | 
32 | A33U A42U G44C | < 1e-05 s⁻¹ |  | 
33 | U31A U55G C67U | 0.000859 ± 0.00023 s⁻¹ | 0.000519 ± 0.00025 s⁻¹ | 
34 | C16U G35C G37A | < 1e-05 s⁻¹ |  | 
35 | G29U C34U G40U A42C U55A G66U | < 1e-05 s⁻¹ | < 1e-05 s⁻¹ | 
36 | A33C G38A U47G | < 1e-05 s⁻¹ | < 1e-05 s⁻¹ | 
37 | G29C U55G C71A | 0.000503 ± 0.00015 s⁻¹ | 5.43e-05 ± 1.3e-05 s⁻¹ | 
38 | U30A G40U U45A | 4.42e-05 ± 2.1e-05 s⁻¹ | 0.000226 ± 5.7e-05 s⁻¹ | 
39 | A15G C34A C71U | < 1e-05 s⁻¹ | < 1e-05 s⁻¹ | 
40 | G29C G51A C67G C68G U69G | 5.75e-05 ± 2.7e-05 s⁻¹ |  | 
41 | U31A U47C U54G | 0.000284 ± 6e-05 s⁻¹ | 0.00068 ± 0.00013 s⁻¹ | 
42 | C16A C68G | 0.000279 ± 0.00013 s⁻¹ | 3.3e-05 ± 9.2e-06 s⁻¹ | 

Row | Variant | self-cleavage kobs at 640 uM GlcN6P (glucosamine-6-phosphate [1]) | self-cleavage kobs at 2500 uM GlcN6P (glucosamine-6-phosphate [2]) | self-cleavage kobs at 10000 uM GlcN6P (glucosamine-6-phosphate [3])
43 | G32A C34U G60A | < 1e-05 s⁻¹ | < 1e-05 s⁻¹ | 
44 | G29A G32U U56A | 8.76e-05 ± 2.8e-05 s⁻¹ | 0.000464 ± 0.00011 s⁻¹ | 
45 | U30G A42G G66A C71A | 0.00018 ± 5.9e-05 s⁻¹ | 0.000159 ± 4.2e-05 s⁻¹ | 
46 | G26U G60A C68A | 9.37e-05 ± 4.6e-05 s⁻¹ |  | 
47 | A33G C50G C68G | 0.00023 ± 6.4e-05 s⁻¹ | 0.000213 ± 4e-05 s⁻¹ | 
48 | C16U G43C C71A | < 1e-05 s⁻¹ | < 1e-05 s⁻¹ | 
49 | C16U G43A C67G | 0.000254 ± 6.6e-05 s⁻¹ |  | 0.000419 ± 0.0001 s⁻¹
50 | A15U U31C U55G G63U | < 1e-05 s⁻¹ |  | 
51 | C16G A36C G51A G59C C61G | < 1e-05 s⁻¹ | < 1e-05 s⁻¹ | 
52 | G32A U57G U69G | 0.000252 ± 0.00011 s⁻¹ |  | 
53 | U30C G63U C68G | 9.11e-05 ± 1.9e-05 s⁻¹ | 5.6e-05 ± 1.4e-05 s⁻¹ | 
54 | G32C G35U A36C C68A | < 1e-05 s⁻¹ | < 1e-05 s⁻¹ | 
55 | G32U A33U U56G | < 1e-05 s⁻¹ |  | 
56 | U31C G44A U46G G59A C70U | < 1e-05 s⁻¹ | < 1e-05 s⁻¹ | 
57 | A33C C61A A64U C68U | < 1e-05 s⁻¹ |  | 
58 | U30G G37A A53G | 0.000102 ± 2.5e-05 s⁻¹ |  | 
59 | A33U G41U A48C C68U | < 1e-05 s⁻¹ |  | 
60 | C16U C34U G66U C68G | 0.000354 ± 0.0001 s⁻¹ |  | 
61 | C19A G44U | 2.94e-05 ± 1.3e-05 s⁻¹ | 0.000114 ± 2.7e-05 s⁻¹ | 
62 | G32U G62A C67A | < 1e-05 s⁻¹ |  | 
63 | A15U G38U G63U | < 1e-05 s⁻¹ |  | 
